Patent US20260049138A1 (Chugai, published 2026)

Biological target: T1, CD3ε homodimer protein (human, UniProt P07766 23-126, limits assumed, sulfo-tag or biotin label in the ECL assays; amine-coupled to the chip in SPR)
T1 construct: also called human CD3ε homodimer protein; CD3 (CD3ε)
Assay: SPR Biacore T200; CD3ε homodimer on CM4 chip;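 also: Single-residue variant antibodies injected as analyte over CD3ε homodimer immobilized by amine coupling, run at 25 °C in HBS-EP+ buffer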

T1 sequence (P07766 23-126 limits assumed): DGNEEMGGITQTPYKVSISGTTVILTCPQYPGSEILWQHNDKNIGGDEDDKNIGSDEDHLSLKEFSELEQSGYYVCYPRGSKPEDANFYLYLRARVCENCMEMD

| Binder | ratio of amounts bound Z=Y/X (altered form / CE115HA000) |
| --- | --- |
| CE115HA000 K52N one-arm antibody (antibody, human IgG1, kappa, L234A L235A, N297A, name in Kabat numbering) heavy: QVQLVESGGGVVQPGRSLRLSCAASGFTFSNAWMHWVRQAPGKGLEWVAQINAKSNNYATYYAESVKGRFTISRDDSKNSLYLQMNSLKTEDTAVYYCRYVHYGAYYGVDAWGQGTTVTVSSASTKGPSVFPLAPSSKSTSGGTAALGCLVKDYFPEPVTVSWNSGALTSGVHTFPAVLQSSGLYSLSSVVTVPSSSLGTQTYICNVNHKPSNTKVDKKVEPKSCDKTHTCPPCPAPEAAGGPSVFLFPPKPKDTLMISRTPEVTCVVVDVSHEDPEVKFNWYVDGVEVHNAKTKPREEQYASTYRVVSVLTVLHQDWLNGKEYKCKVSNKALPAPIEKTISKAKGQPREPQVYTLPPSRCELTKNQVSLSCAVKGFYPSDIAVEWESNGQPENNYKTTPPVLDSDGSFFLVSKLTVDKSRWQQGNVFSCSVMHEALHNHYTQKSLSLSPDYKDDDDK EPKSSDKTHTCPPCPAPELLGGPSVFLFPPKPKDTLMISRTPEVTCVVVDVSHEDPEVKFNWYVDGVEVHNAKTKPREEQYNSTYRVVSVLTVLHQDWLNGKEYKCKVSNKALPAPIEKTISKAKGQPREPQVCTLPPSRDELTKNQVSLWCLVKGFYPSDIAVEWESNGQPENNYKTTPPVLDSDGSFFLYSKLTVDKSRWQQGNVFSCSVMHEALHNRYTQKSLSLSP light: DIVMTQSPLSLPVTPGEPASISCRSSQSLVHSNRNTYLHWYQQKPGQAPRLLIYKVSNRFSGVPDRFSGSGSGTDFTLKISRVEAEDVGVYYCGQGTQVPYTFGQGTKLEIKRTVAAPSVFIFPPSDEQLKSGTASVVCLLNNFYPREAKVQWKVDNALQSGNSQESVTEQDSKDSTYSLSSTLTLSKADYEKHKVYACEVTHQGLSSPVTKSFNRGEC | 0.34 |
| CE115HA000 K52R one-arm antibody (antibody, human IgG1, kappa, L234A L235A, N297A, name in Kabat numbering) heavy: QVQLVESGGGVVQPGRSLRLSCAASGFTFSNAWMHWVRQAPGKGLEWVAQIRAKSNNYATYYAESVKGRFTISRDDSKNSLYLQMNSLKTEDTAVYYCRYVHYGAYYGVDAWGQGTTVTVSSASTKGPSVFPLAPSSKSTSGGTAALGCLVKDYFPEPVTVSWNSGALTSGVHTFPAVLQSSGLYSLSSVVTVPSSSLGTQTYICNVNHKPSNTKVDKKVEPKSCDKTHTCPPCPAPEAAGGPSVFLFPPKPKDTLMISRTPEVTCVVVDVSHEDPEVKFNWYVDGVEVHNAKTKPREEQYASTYRVVSVLTVLHQDWLNGKEYKCKVSNKALPAPIEKTISKAKGQPREPQVYTLPPSRCELTKNQVSLSCAVKGFYPSDIAVEWESNGQPENNYKTTPPVLDSDGSFFLVSKLTVDKSRWQQGNVFSCSVMHEALHNHYTQKSLSLSPDYKDDDDK EPKSSDKTHTCPPCPAPELLGGPSVFLFPPKPKDTLMISRTPEVTCVVVDVSHEDPEVKFNWYVDGVEVHNAKTKPREEQYNSTYRVVSVLTVLHQDWLNGKEYKCKVSNKALPAPIEKTISKAKGQPREPQVCTLPPSRDELTKNQVSLWCLVKGFYPSDIAVEWESNGQPENNYKTTPPVLDSDGSFFLYSKLTVDKSRWQQGNVFSCSVMHEALHNRYTQKSLSLSP light: DIVMTQSPLSLPVTPGEPASISCRSSQSLVHSNRNTYLHWYQQKPGQAPRLLIYKVSNRFSGVPDRFSGSGSGTDFTLKISRVEAEDVGVYYCGQGTQVPYTFGQGTKLEIKRTVAAPSVFIFPPSDEQLKSGTASVVCLLNNFYPREAKVQWKVDNALQSGNSQESVTEQDSKDSTYSLSSTLTLSKADYEKHKVYACEVTHQGLSSPVTKSFNRGEC | 0.91 |

Second part, the binder after the results:

| ratio of amounts bound Z=Y/X (altered form / CE115HA000) | Binder |
| --- | --- |
| 0.28 | CE115HA000 K52S one-arm antibody (antibody, human IgG1, kappa, L234A L235A, N297A, name in Kabat numbering) heavy: QVQLVESGGGVVQPGRSLRLSCAASGFTFSNAWMHWVRQAPGKGLEWVAQISAKSNNYATYYAESVKGRFTISRDDSKNSLYLQMNSLKTEDTAVYYCRYVHYGAYYGVDAWGQGTTVTVSSASTKGPSVFPLAPSSKSTSGGTAALGCLVKDYFPEPVTVSWNSGALTSGVHTFPAVLQSSGLYSLSSVVTVPSSSLGTQTYICNVNHKPSNTKVDKKVEPKSCDKTHTCPPCPAPEAAGGPSVFLFPPKPKDTLMISRTPEVTCVVVDVSHEDPEVKFNWYVDGVEVHNAKTKPREEQYASTYRVVSVLTVLHQDWLNGKEYKCKVSNKALPAPIEKTISKAKGQPREPQVYTLPPSRCELTKNQVSLSCAVKGFYPSDIAVEWESNGQPENNYKTTPPVLDSDGSFFLVSKLTVDKSRWQQGNVFSCSVMHEALHNHYTQKSLSLSPDYKDDDDK EPKSSDKTHTCPPCPAPELLGGPSVFLFPPKPKDTLMISRTPEVTCVVVDVSHEDPEVKFNWYVDGVEVHNAKTKPREEQYNSTYRVVSVLTVLHQDWLNGKEYKCKVSNKALPAPIEKTISKAKGQPREPQVCTLPPSRDELTKNQVSLWCLVKGFYPSDIAVEWESNGQPENNYKTTPPVLDSDGSFFLYSKLTVDKSRWQQGNVFSCSVMHEALHNRYTQKSLSLSP light: DIVMTQSPLSLPVTPGEPASISCRSSQSLVHSNRNTYLHWYQQKPGQAPRLLIYKVSNRFSGVPDRFSGSGSGTDFTLKISRVEAEDVGVYYCGQGTQVPYTFGQGTKLEIKRTVAAPSVFIFPPSDEQLKSGTASVVCLLNNFYPREAKVQWKVDNALQSGNSQESVTEQDSKDSTYSLSSTLTLSKADYEKHKVYACEVTHQGLSSPVTKSFNRGEC |
| 0.22 | CE115HA000 K52W one-arm antibody (antibody, human IgG1, kappa, L234A L235A, N297A, name in Kabat numbering) heavy: QVQLVESGGGVVQPGRSLRLSCAASGFTFSNAWMHWVRQAPGKGLEWVAQIWAKSNNYATYYAESVKGRFTISRDDSKNSLYLQMNSLKTEDTAVYYCRYVHYGAYYGVDAWGQGTTVTVSSASTKGPSVFPLAPSSKSTSGGTAALGCLVKDYFPEPVTVSWNSGALTSGVHTFPAVLQSSGLYSLSSVVTVPSSSLGTQTYICNVNHKPSNTKVDKKVEPKSCDKTHTCPPCPAPEAAGGPSVFLFPPKPKDTLMISRTPEVTCVVVDVSHEDPEVKFNWYVDGVEVHNAKTKPREEQYASTYRVVSVLTVLHQDWLNGKEYKCKVSNKALPAPIEKTISKAKGQPREPQVYTLPPSRCELTKNQVSLSCAVKGFYPSDIAVEWESNGQPENNYKTTPPVLDSDGSFFLVSKLTVDKSRWQQGNVFSCSVMHEALHNHYTQKSLSLSPDYKDDDDK EPKSSDKTHTCPPCPAPELLGGPSVFLFPPKPKDTLMISRTPEVTCVVVDVSHEDPEVKFNWYVDGVEVHNAKTKPREEQYNSTYRVVSVLTVLHQDWLNGKEYKCKVSNKALPAPIEKTISKAKGQPREPQVCTLPPSRDELTKNQVSLWCLVKGFYPSDIAVEWESNGQPENNYKTTPPVLDSDGSFFLYSKLTVDKSRWQQGNVFSCSVMHEALHNRYTQKSLSLSP light: DIVMTQSPLSLPVTPGEPASISCRSSQSLVHSNRNTYLHWYQQKPGQAPRLLIYKVSNRFSGVPDRFSGSGSGTDFTLKISRVEAEDVGVYYCGQGTQVPYTFGQGTKLEIKRTVAAPSVFIFPPSDEQLKSGTASVVCLLNNFYPREAKVQWKVDNALQSGNSQESVTEQDSKDSTYSLSSTLTLSKADYEKHKVYACEVTHQGLSSPVTKSFNRGEC |
